Results taken from patent US20250155401, “RAPID, SINGLE-STEP AND REAGENTLESS ELECTROCHEMICAL BIOSENSING METHODS, COMPOSITIONS AND DEVICES FOR NANOMOLAR DETECTION OF C-REACTIVE PROTEIN” (Advanced Biomedical Instrumentation Centre Limited, published 2025).

T1: C-reactive protein (CRP) (UniProt P02741 P02741:19-224)
T1 sequence: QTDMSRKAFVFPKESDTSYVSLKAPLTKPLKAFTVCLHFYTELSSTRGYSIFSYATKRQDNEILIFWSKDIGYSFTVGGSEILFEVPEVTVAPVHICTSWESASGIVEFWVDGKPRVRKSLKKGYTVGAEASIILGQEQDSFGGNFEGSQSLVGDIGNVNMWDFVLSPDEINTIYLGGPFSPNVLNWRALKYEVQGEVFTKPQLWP

B1: CRP-targeting aptamer without flanking primer regions (control) (ssDNA)
DNA: CGATGGGGGGGTATGATTTGATGTGGTTGTTGCATGATCG
modifications: 5' thiol modifier (C6-S-S), 3' methylene blue via C7 spacer
B2: CRP-targeting aptamer (ssDNA)
DNA: GGCAGGAAGACAAACACGATGGGGGGGTATGATTTGATGTGGTTGTTGCATGATCGTGGTCTGTGGTGCTGT
modifications: 5' thiol modifier (C6-S-S), 3' methylene blue via C7 spacer

Columns and labels:
C-reactive protein (CRP) [1] = molecular target: T1, C-reactive protein (CRP); assay: square wave voltammetry; no response up to 500 nM CRP in PBS with 1 mM BSA; details: tags: abcam ab167710, HEK 293 expressed, >95% purity; chain copies: 5 (pentamer, stated); label: 3' methylene blue
Experimental: Refer to FIGS. 3A-3E for the following descriptions. To assess specificity of the CRP-targeting aptamer, initial assays are conducted in PBS (1×) buffer supplemented with bovine serum albumin ‘BSA’. Albumin is fixed at a concentration of 1 mM to reflect slightly higher concentrations than those found in serum. Control sensors are prepared in the same fashion as with test sensors using an excised version of the CRP-targeting aptamer sequence without flanking primer regions (FIG. 3D). […] A Limit of detection ‘LOD’ of 105.4 pM is calculated using linear regression, using n=3 independently prepared sensors. […] Here, CRP concentration is reported in molar units and calculate values based on the pentameric isoform weight of 115-120 kDa, as is reported by the commercial supplier and elsewhere.

[2] = molecular target: human serum albumin (HSA) (Homo sapiens, UniProt P02768 P02768:25-609); assay: square wave voltammetry; no observable deviation in response, PBS; details: label: 3' methylene blue
Experimental: (§1) The initial response spike is caused by injection of the analyte. Subsequent stabilisation of the response signal via this testing method occurs over 2-3 minutes. Crucially, significant concentrations of bovine serum albumin, and human serum albumin produce no observable deviation in response, confirming excellent selectivity against serum endogenous proteins that are well known to produce false positives in other sensors formats.

[3] = molecular target: bovine serum albumin (BSA) (Bos taurus, UniProt P02769 P02769:25-607); assay: as above; details: tags: Sigma-Aldrich, lyophilized powder >96%; label: 3' methylene blue
Experimental: as §1

C-reactive protein (CRP) [4] = molecular target: T1, C-reactive protein (CRP); assay: square wave voltammetry on gold SPE, Hill-Langmuir fit of 48-hour sensor re-use data; BSA-doped PBS with Mg, room temperature not stated; details: tags: abcam ab167710, HEK 293 expressed, >95% purity; chain copies: 5 (pentamer, stated); label: 3' methylene blue
Experimental: Refer to FIGS. 4A-4D for the following descriptions. To assess reusability of the prepared aptasensors, dose-response assays are conducted in BSA doped PBS buffer 48 hours after initial testing. Magnesium is used to supplement PBS buffer to more closely match the ion content found in serum with observations showing little difference between results obtained from the initial screening assay. […] Despite these uncertainties, linear range observed for used sensors is broadly maintained. For used sensors, the LOD calculated from linear regression is shown to be approximately 363 pM which matched well with an LOD value of approx. 374 pM derived from non-linear regression fits to the Hill-Langmuir (dose response) function described in section 2.6. Non-Linear fitting is achieved with good fitting (adjusted R₂=0.99). […] Here, concentration is provided in molar units, calculated using the CRP pentameric isoform weight of 120 kDa.

Sequence of bovine serum albumin (BSA) (P02769 25-607, one chain of several): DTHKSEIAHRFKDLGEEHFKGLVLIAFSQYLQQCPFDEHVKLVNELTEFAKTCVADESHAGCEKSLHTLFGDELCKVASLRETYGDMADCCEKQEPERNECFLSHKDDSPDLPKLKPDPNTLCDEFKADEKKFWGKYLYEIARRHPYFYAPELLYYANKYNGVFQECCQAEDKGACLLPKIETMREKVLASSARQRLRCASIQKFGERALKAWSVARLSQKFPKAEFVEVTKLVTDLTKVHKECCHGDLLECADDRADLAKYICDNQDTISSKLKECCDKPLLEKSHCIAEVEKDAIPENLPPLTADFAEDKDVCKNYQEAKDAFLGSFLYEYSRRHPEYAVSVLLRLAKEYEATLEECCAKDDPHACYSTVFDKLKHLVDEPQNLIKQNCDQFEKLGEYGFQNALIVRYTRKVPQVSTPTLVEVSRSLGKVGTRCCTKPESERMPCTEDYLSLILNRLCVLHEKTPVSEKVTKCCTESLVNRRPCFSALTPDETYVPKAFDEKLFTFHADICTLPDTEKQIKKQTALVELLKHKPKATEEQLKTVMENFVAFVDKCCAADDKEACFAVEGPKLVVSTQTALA
Sequence of human serum albumin (HSA) (P02768 25-609, one chain of several): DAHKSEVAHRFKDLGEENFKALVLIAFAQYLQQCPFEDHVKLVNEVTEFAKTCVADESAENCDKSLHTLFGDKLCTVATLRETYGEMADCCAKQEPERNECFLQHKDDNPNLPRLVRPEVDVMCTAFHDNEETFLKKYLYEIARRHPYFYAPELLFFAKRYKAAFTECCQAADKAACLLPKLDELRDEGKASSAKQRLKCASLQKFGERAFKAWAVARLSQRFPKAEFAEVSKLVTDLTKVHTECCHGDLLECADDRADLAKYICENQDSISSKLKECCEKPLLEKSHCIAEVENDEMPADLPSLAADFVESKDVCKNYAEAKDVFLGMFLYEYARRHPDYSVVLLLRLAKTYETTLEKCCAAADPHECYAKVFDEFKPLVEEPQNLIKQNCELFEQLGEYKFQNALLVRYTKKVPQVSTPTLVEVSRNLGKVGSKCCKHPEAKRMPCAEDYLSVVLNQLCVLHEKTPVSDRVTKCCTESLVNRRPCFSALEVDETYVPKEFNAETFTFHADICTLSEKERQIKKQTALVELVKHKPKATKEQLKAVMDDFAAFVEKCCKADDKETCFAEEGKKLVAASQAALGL

Binder	binding result (C-reactive protein (CRP) [1])	binding result [2]	binding result [3]	Kd (C-reactive protein (CRP) [4])
B1	no binding	–	–	–
B2	–	no binding	no binding	55.4 nM
